Literature values as cited in article PMC7611479.

Legend:
guanylin (Homo sapiens) = guanylin (Homo sapiens) (UniProt Q02747)
[1] = molecular target: uroguanylin (Homo sapiens) (UniProt Q16661)

GC-C ECD (from UniProt P25092)
Kd (guanylin (Homo sapiens)): 10 nM | Kd [1]: 1 nM
